# Starred links: 1 amine or outer side, 2 acyl side, 3 side chain; linkers in the order of their positions; H or OH if unused. Non-standard residues stand in square brackets, D forms with d. No end group written: not given here. *: point of attachment. NMe2F‑APPA = N-methyl-2-amino-5-(2-fluorophenyl)pentanoic acid, CN([C@@H](CCCc1ccccc1F)C(=O)[*:2])[*:1]; AMCB = 2-amino-5-(4-chloro-2-methylphenyl)pentanoic acid, Cc1cc(Cl)ccc1CCC[C@H](N[*:1])C(=O)[*:2]; 2CF3,4F‑APPA = 2-amino-5-(4-fluoro-2-(trifluoromethyl)phenyl)pentanoic acid; 2F,4CF3‑APPA = 2-amino-5-(2-fluoro-4-(trifluoromethyl)phenyl)pentanoic acid; Bip(2'-Et-4'-OMe) = CCc1cc(OC)ccc1-c1ccc(C[C@H](N)C(=O)O)cc1; Leu(5,5,5,5',5',5'-F6) = N[C@@H](CC(C(F)(F)F)C(F)(F)F)C(=O)O; 2Cl‑APPA = 2-amino-5-(2-chlorophenyl)pentanoic acid; 2F‑APPA = 2-amino-5-(2-fluorophenyl)pentanoic acid; αMePhe(2-F) = C[C@](N)(Cc1ccccc1F)C(=O)O; NMeBip(OMe) = N-methylated Bip(OMe); hhPhe = N[C@@H](CCCc1ccccc1)C(=O)O; αMeF = C[C@](N)(Cc1ccccc1)C(=O)O; NMeD = CN[C@@H](CC(=O)O)C(=O)O; aThr = C[C@H](O)[C@H](N)C(=O)O; NMeAPPA = not defined here; CNB = not defined here; Aib = CC(C)(N)C(=O)O; Moc = COC(=O)*
# Molecular target: human glucagon receptor (human, UniProt P47871 26-477)
# Assay: cell-based or functional assay
Binder,"inhibition of cAMP production, 1 nM [pmol/ml/µg prt]","inhibition of cAMP production, 10 nM [pmol/ml/µg prt]","inhibition of cAMP production, 100 nM [pmol/ml/µg prt]","inhibition of cAMP production, 1 µM [pmol/ml/µg prt]","inhibition of cAMP production, 10 µM [pmol/ml/µg prt]"
"Ac-H[Aib][Leu(5,5,5,5',5',5'-F6)]GT[αMePhe(2-F)]TSD[Bip(2'-Et-4'-OMe)][2F‑APPA] [Seq. ID. No. 212: CH3CO-H-Aib-(Hfl)-GT-(α-Me-2F-Phe)-TSD-Bip(OMe)-(2F-APPA)]",10,8,6,4,1
"H[Aib][Leu(5,5,5,5',5',5'-F6)]GT[αMePhe(2-F)][aThr]SD[Bip(2'-Et-4'-OMe)][hhPhe] [Seq. ID. No. 225: H-Aib-(Hfl)-GT-(α-Me-2F-Phe)-T(allo)-SD-Bip(OMe)-(APPA)]",5,2,0,0,0
Moc-H[Aib][CNB]GT[αMePhe(2-F)]TSD[Bip(2'-Et-4'-OMe)][2F‑APPA] (reading uncertain) [Seq. ID. No. 208: CH3OCO-H-Aib-(CNB)-GT-(α-Me-2F-Phe)-TSD-Bip(OMe)-(2F-APPA)],5,3,1,0,0
"H[Aib][Leu(5,5,5,5',5',5'-F6)]G[aThr][αMePhe(2-F)][aThr]SD[Bip(2'-Et-4'-OMe)][2F‑APPA] (also: thioamide (C═S) bond Z10-Z11) [Seq. ID. No. 218: H-Aib-(Hfl)-G-T(allo)-(α-Me-2F-Phe)-T(allo)-SD-Bip(OMe)-(C═S)-(2F-APPA)]",9,6,5,3,0

# Molecular target: human GLP-1 receptor (human, UniProt P43220 24-463)
# Sequence (P43220 24-463): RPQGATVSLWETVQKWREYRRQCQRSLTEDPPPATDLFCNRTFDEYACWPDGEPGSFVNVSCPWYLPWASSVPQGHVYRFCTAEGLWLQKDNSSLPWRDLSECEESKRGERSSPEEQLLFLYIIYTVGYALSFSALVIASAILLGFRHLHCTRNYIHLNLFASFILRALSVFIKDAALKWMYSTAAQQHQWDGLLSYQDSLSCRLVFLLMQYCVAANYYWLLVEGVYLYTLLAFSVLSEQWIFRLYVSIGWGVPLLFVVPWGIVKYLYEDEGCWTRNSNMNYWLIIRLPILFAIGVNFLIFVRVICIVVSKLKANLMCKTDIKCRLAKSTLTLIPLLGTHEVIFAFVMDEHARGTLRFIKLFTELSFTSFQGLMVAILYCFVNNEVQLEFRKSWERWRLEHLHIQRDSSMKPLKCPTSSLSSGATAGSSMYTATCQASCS
# Assay: cell-based or functional assay
Binder,"cAMP release, % activity, 1 nM [%]","cAMP release, % activity, 10 nM [%]","cAMP release, % activity, 100 nM [%]","cAMP release, % activity, 1 µM [%]","cAMP release, % activity, 10 µM [%]"
"H[Aib][Leu(5,5,5,5',5',5'-F6)]G[aThr][αMePhe(2-F)][aThr]S[NMeD][NMeBip(OMe)][NMeAPPA] (reading uncertain) [Seq. ID. No. 220: H-Aib-(Hfl)-G-T(allo)-(α-Me-2F-Phe)-T(allo)-S-(NMe)D-((NMe)Bip(OMe))-((NMe)(APPA))]",93,99,99,99,99
Ac-H[Aib]QG[aThr][αMePhe(2-F)][aThr]SD[Bip(2'-Et-4'-OMe)][hhPhe] (also: reduced (CH2) bond between 10 and 11) [Seq. ID. No. 185: CH3CO-H-Aib-QG-T(allo)-(α-Me-2F-Phe)-T(allo)-SD-Bip(OMe)-(CH2)-(APPA)],46,85,90,99,99
"H[Aib][CNB]GTFTSD[Bip(2'-Et-4'-OMe)][2F,4CF3‑APPA] (reading uncertain) [Seq. ID. No. 81: H-Aib-(CNB)-GTFTSD-Bip(OMe)-(2F, 4CF3-APPA)]",69,98,99,99,99
Moc-H[Aib]QGT[αMePhe(2-F)]TSD[Bip(2'-Et-4'-OMe)][2F‑APPA] (also: reduced (CH2) bonds between 9-10 and 10-11) [Seq. ID. No. 196: CH3OCO-H-Aib-QGT-(α-Me-2F-Phe)-TSD-(CH2)-BiP(OMe)-(CH2)-(2F-APPA)],39,81,89,96,99
"H[Aib][CNB]GTFTSD[Bip(2'-Et-4'-OMe)][2CF3,4F‑APPA] (reading uncertain) [Seq. ID. No. 80: H-Aib-(CNB)-GTFTSD-Bip(OMe)-(2CF3, 4F-APPA)]",66,97,99,99,99
Ac-H[Aib]QG[aThr][αMePhe(2-F)][aThr]SD[Bip(2'-Et-4'-OMe)][hhPhe] [Seq. ID. No. 101: CH3CO-H-Aib-QG-T(allo)-(α-Me-2F-Phe)-T(allo)-SD-Bip(OMe)-(APPA)],41,82,87,95,98
Moc-H[Aib]QG[aThr][αMePhe(2-F)][aThr]SD[Bip(2'-Et-4'-OMe)][hhPhe] (also: reduced (CH2) bonds between 9-10 and 10-11) [Seq. ID. No. 198: CH3OCO-H-Aib-QG-T(allo)-(α-Me-2F-Phe)-T(allo)-SD-(CH2)-Bip(OMe)-(CH2)-(APPA)],82,87,92,99,99
Moc-H[Aib]QG[aThr][αMePhe(2-F)][aThr]SD[NMeBip(OMe)][NMe2F‑APPA] [Seq. ID. No. 140: CH3OCO-H-Aib-QG-T(allo)-(α-Me-2F-Phe)-T(allo)-SD-((NMe)Bip(OMe))-((NMe)(2F-APPA))],51,86,91,99,99
"H[Aib][Leu(5,5,5,5',5',5'-F6)]G[aThr][αMePhe(2-F)][aThr]SD[Bip(2'-Et-4'-OMe)][2F‑APPA] (also: thioamide (C═S) bonds Z9-Z10 and Z10-Z11) [Seq. ID. No. 216: H-Aib-(Hfl)-G-T(allo)-(α-Me-2F-Phe)-T(allo)-SD-(C═S)-Bip(OMe)-(C═S)-(2F-APPA)]",93,99,99,99,99
"H[Aib][Leu(5,5,5,5',5',5'-F6)]GT[αMeF]TSD[Bip(2'-Et-4'-OMe)][hhPhe] [Seq. ID. No. 230: H-Aib-(Hfl)-GT-(α-Me-Phe)-TSD-Bip(OMe)-(APPA)]",99,99,99,99,99
"H[Aib][Leu(5,5,5,5',5',5'-F6)]GT[αMePhe(2-F)][aThr]SD[Bip(2'-Et-4'-OMe)][2F‑APPA] [Seq. ID. No. 224: H-Aib-(Hfl)-GT-(α-Me-2F-Phe)-T(allo)-SD-Bip(OMe)-(2F-APPA)]",99,99,99,99,99
"Ac-H[Aib][Leu(5,5,5,5',5',5'-F6)]GT[αMePhe(2-F)]TSD[Bip(2'-Et-4'-OMe)][hhPhe] [Seq. ID. No. 210: CH3CO-H-Aib-(Hfl)-GT-(α-Me-2F-Phe)-TSD-Bip(OMe)-(APPA)]",46,85,90,99,99
H[Aib][CNB]GTFTSD[Bip(2'-Et-4'-OMe)][2Cl‑APPA] (reading uncertain) [Seq. ID. No. 82: H-Aib-(CNB)-GTFTSD-Bip(OMe)-(2Cl-APPA)],78,99,99,99,99
H[Aib][CNB]G[aThr][αMePhe(2-F)][aThr]SD[Bip(2'-Et-4'-OMe)][hhPhe] (reading uncertain; also: reduced (CH2) bond between 10 and 11) [Seq. ID. No. 190: H-Aib-(CNB)-G-T(allo)-(α-Me-2F-Phe)-T(allo)-SD-Bip(OMe)-(CH2)-(APPA)],41,82,87,95,98
H[Aib][CNB]G[aThr][αMePhe(2-F)][aThr]SD[Bip(2'-Et-4'-OMe)][2F‑APPA] (reading uncertain; also: thioamide bonds between residues 9-10 and 10-11) [Seq. ID. No. 180: H-Aib-(CNB)-G-T(allo)-(α-Me-2F-Phe)-T(allo)-SD-(C═S)-Bip(OMe)-(C═S)-(2F-APPA)],40,81,89,96,99
H[Aib]QG[aThr][αMePhe(2-F)][aThr]SD[Bip(2'-Et-4'-OMe)][2F‑APPA] (also: reduced (CH2) bonds Z9-Z10 and Z10-Z11) [Seq. ID. No. 203: H-Aib-QG-T(allo)-(α-Me-2F-Phe)-T(allo)-SD-(CH2)-Bip(OMe)-(CH2)-(2F-APPA)],86,99,99,99,99
HAQGTFTSD[Bip(2'-Et-4'-OMe)][AMCB] [Seq. ID. No. 16: HAQGTFTSD-Bip(OMe)-(AMCB)],99,99,99,99,99
